# Data: patent US20250121075A1, “ALPHA-FETOPROTEIN BIOCONJUGATES FOR DISEASE TREATMENT” (priority 2021, published 2025)
# Experiments:
# [1] = molecular target: alpha-fetoprotein (AFP) receptor (AFPR) (human); assay: AF-647 labeled rhAFP incubated with COLO 205 cells at 37 C for 0.5, 2 and 5 h, plate reader fluorescence
# [2] = molecular target: alpha-fetoprotein (AFP) receptor (AFPR) (human); assay: AF-647 labeled rhAFP incubated with MCF7 cells at 37 C for 0.5, 2 and 5 h, plate reader fluorescence
# [3] = molecular target: alpha-fetoprotein (AFP) receptor (AFPR) (human); assay: AF-647 labeled rhAFP incubated with MOLT-4 cells at 37 C for 0.5, 2 and 5 h, plate reader fluorescence
# [4] = molecular target: alpha-fetoprotein (AFP) receptor (AFPR) (human); assay: AF-647 labeled rhAFP incubated with OVCAR-3 cells at 37 C for 0.5, 2 and 5 h, plate reader fluorescence
# [5] = molecular target: alpha-fetoprotein (AFP) receptor (AFPR) (human); assay: AF-647 labeled rhAFP incubated with SKOV-3 cells at 37 C for 0.5, 2 and 5 h, plate reader fluorescence
# [6] = molecular target: alpha-fetoprotein (AFP) receptor (AFPR) (human); assay: AF-647 labeled rhAFP incubated with U-937 cells at 37 C for 0.5, 2 and 5 h, plate reader fluorescence
# [7] = molecular target: alpha-fetoprotein (AFP) receptor (AFPR) (human); assay: AF-647 labeled rhAFP incubated with H522 cells at 37 C for 0.5, 2 and 5 h, plate reader fluorescence
# NCl-H522 = assay: Cytotoxicity of bioconjugates of varying DPR (Series 2); format: cell-based, human; settings: Series 2 bioconjugates
# Method: (§1) A series of bioconjugates containing DM1, DM3, DM4 or ABZ981 synthesized under varying reaction conditions, resulting in different average DPRs. The cytotoxicity of these bioconjugates were evaluated in vitro in a panel of tumor cell lines (leukemia, breast, colorectal, ovarian and lung).
# OV AR3 = assay: as above; format: cell-based, human; settings: Series 2 bioconjugates
# Method: as §1
# SKOV-3 [8] = assay: as above; format: cell-based, human; settings: Series 2 bioconjugates
# Method: as §1
# COLO-205 = assay: as above; format: cell-based, human; settings: Series 2 bioconjugates
# Method: as §1
# ovarian cancer organoids = assay: Ovarian cancer organoids from two patients; format: cell-based
# U-937 = assay: Binding of AF-647 labeled rhAFP (ACT-101) to tumor cells; design: species or system human; settings: U-937, histiocytic lymphoma
# Method: (§2) Prior to testing lead compounds in vitro, the expression of the AFP receptor and ability of cells to bind and take up fluorescently-labelled rhAFP was established in the U937 cell line as well as other cell lines, as in the study summarized in Table 1 below. In this study, rhAFP was labeled using the procedures described in the product protocol from commercially available Alexa Fluor-647 (AF-647) protein labeling kits. Binding experiments were performed in 96-well plates and fluorescence was measured using a plate reader. Tumor cells were cultured in suspension or plated in cell culture media. Each tumor cell line was incubated with AF-647 labeled rhAFP at 37° C. for 0.5, 2 and 5 hours (n=3 replicates). Incubation was stopped by chilling on ice. For cells in suspension, cells and culture medium were collected separately by centrifugation and subjected to repeat wash steps. For plated cells, trypsin/EDTA was used for cell detachment.
# MCF7 = assay: as above; design: species or system human; settings: MCF7, breast adenocarcinoma
# Method: as §2
# MOLT-4 = assay: as above; design: species or system human; settings: MOLT-4, acute lymphoblastic leukemia
# Method: as §2
# COLO 205 = assay: as above; design: species or system human; settings: COLO 205, metastatic colorectal adenocarcinoma
# Method: as §2
# SKOV-3 [9] = assay: as above; design: species or system human; settings: SKOV-3, ovary adenocarcinoma
# Method: as §2
# OVCAR-3 = assay: as above; design: species or system human; settings: OVCAR-3, ovary adenocarcinoma; 37° C., 0.5, 2 and 5 hours
# Method: as §2
# H522 = assay: as above; design: species or system human; settings: H522, non-small cell lung adenocarcinoma
# Method: as §2
# MCF-7 = assay: Cytotoxicity of bioconjugates of varying DPR (Series 1); format: cell-based, human
# Method: as §1
# U937 = assay: as above; format: cell-based, human; settings: Series 1 bioconjugates
# Method: as §1
molecule,measurement,setting,value
"Mature [Asn233Gln]rhAFP(1-591), lacking glycosylation, produced in transgenic goats (ACT-101) (ligand, fluorescent label, site not stated: Alexa Fluor-647 (Table 1), AlexaFluor488 (FIG. 1 competition), Alexa Fluor-488 or FITC (other studies)) RTLHRNEYGIASILDSYQCTAEISLADLATIFFAQFVQEATYKEVSKMVKDALTAIEKPTGDEQSSGCLENQLPAFLEELCHEKEILEKYGHSDCCSQSEEGRHNCFLAHKKPTPASIPLFQVPEPVTSCEAYEEDRETFMNKFIYEIARRHPFLYAPTILLWAARYDKIIPSCCKAENAVECFQTKAATVTKELRESSLLNQHACAVMKNFGTRTFQAITVTKLSQKFTKVQFTEIQKLVLDVAHVHEHCCRGDVLDCLQDGEKIMSYICSQQDTLSNKITECCKLTTLERGQCIIHAENDEKPEGLSPNLNRFLGDRDFNQFSSGEKNIFLASFVHEYSRRHPQLAVSVILRVAKGYQELLEKCFQTENPLECQDKGEEELQKYIQESQALAKRSCGLFQKLGEYYLQNAFLVAYTKKAPQLTSSELMAITRKMAATAATCCQLSEDKLLACGEGAADIIIGHLCIRHEMTPVNPGVGQCCTSSYANRRPCFSSLVVDETYVPPAFSDDKFIFHKDLCQAQGVALQTMKQEFLINLVKQKPQITEEQLEAVIADFSGLLEKCCQGQEQEVCFAEEGQKLISKTRAALGV",Highest AFP binding over 5 h Period (ng/million cells),[1],75
same,Highest AFP binding over 5 h Period (ng/million cells),[2],126
same,Highest AFP binding over 5 h Period (ng/million cells),[3],19
same,Highest AFP binding over 5 h Period (ng/million cells),[4],71
same,Highest AFP binding over 5 h Period (ng/million cells),[5],31.3
same,Highest AFP binding over 5 h Period (ng/million cells),[6],84.3
same,Highest AFP binding over 5 h Period (ng/million cells),[7],71.1
"AH00-3D: Series 2 AFP bioconjugate, toxin printed DME (DM3), DPR 4 (conjugate, UniProt P02771 19-609, looked up, DM3 maytansinoid toxin conjugate, DPR 4) Alpha-fetoprotein: RTLHRNEYGIASILDSYQCTAEISLADLATIFFAQFVQEATYKEVSKMVKDALTAIEKPTGDEQSSGCLENQLPAFLEELCHEKEILEKYGHSDCCSQSEEGRHNCFLAHKKPTPASIPLFQVPEPVTSCEAYEEDRETFMNKFIYEIARRHPFLYAPTILLWAARYDKIIPSCCKAENAVECFQTKAATVTKELRESSLLNQHACAVMKNFGTRTFQAITVTKLSQKFTKVNFTEIQKLVLDVAHVHEHCCRGDVLDCLQDGEKIMSYICSQQDTLSNKITECCKLTTLERGQCIIHAENDEKPEGLSPNLNRFLGDRDFNQFSSGEKNIFLASFVHEYSRRHPQLAVSVILRVAKGYQELLEKCFQTENPLECQDKGEEELQKYIQESQALAKRSCGLFQKLGEYYLQNAFLVAYTKKAPQLTSSELMAITRKMAATAATCCQLSEDKLLACGEGAADIIIGHLCIRHEMTPVNPGVGQCCTSSYANRRPCFSSLVVDETYVPPAFSDDKFIFHKDLCQAQGVALQTMKQEFLINLVKQKPQITEEQLEAVIADFSGLLEKCCQGQEQEVCFAEEGQKLISKTRAALGV",IC50,NCl-H522,21.9 nM
same,IC50,OV AR3,5.47 nM
same,IC50,SKOV-3 [8],22.8 nM
same,IC50,COLO-205,10.7 nM
ACT-101 (protein) RTLHRNEYGIASILDSYQCTAEISLADLATIFFAQFVQEATYKEVSKMVKDALTAIEKPTGDEQSSGCLENQLPAFLEELCHEKEILEKYGHSDCCSQSEEGRHNCFLAHKKPTPASIPLFQVPEPVTSCEAYEEDRETFMNKFIYEIARRHPFLYAPTILLWAARYDKIIPSCCKAENAVECFQTKAATVTKELRESSLLNQHACAVMKNFGTRTFQAITVTKLSQKFTKVQFTEIQKLVLDVAHVHEHCCRGDVLDCLQDGEKIMSYICSQQDTLSNKITECCKLTTLERGQCIIHAENDEKPEGLSPNLNRFLGDRDFNQFSSGEKNIFLASFVHEYSRRHPQLAVSVILRVAKGYQELLEKCFQTENPLECQDKGEEELQKYIQESQALAKRSCGLFQKLGEYYLQNAFLVAYTKKAPQLTSSELMAITRKMAATAATCCQLSEDKLLACGEGAADIIIGHLCIRHEMTPVNPGVGQCCTSSYANRRPCFSSLVVDETYVPPAFSDDKFIFHKDLCQAQGVALQTMKQEFLINLVKQKPQITEEQLEAVIADFSGLLEKCCQGQEQEVCFAEEGQKLISKTRAALGV,binding and uptake of fluorescently labeled protein by organoids,ovarian cancer organoids,bound to and was rapidly taken up
same,"apoptosis, AnnexinV staining","ovarian cancer organoids; by 72 hr, even at low concentrations",innocuous to the cells
same,Highest AFP binding over 5 h Period,U-937,84.3 ng/million cells
same,Highest AFP binding over 5 h Period,MCF7,126 ng/million cells
same,Highest AFP binding over 5 h Period,MOLT-4,19.0 ng/million cells
same,Highest AFP binding over 5 h Period,COLO 205,75.0 ng/million cells
same,Highest AFP binding over 5 h Period,SKOV-3 [9],31.3 ng/million cells
same,Highest AFP binding over 5 h Period,OVCAR-3,71.0 ng/million cells
same,Highest AFP binding over 5 h Period,H522,71.1 ng/million cells
"HM023-2: Series 1 AFP bioconjugate, toxin printed DME (DM3), DPR 4.8 (conjugate, UniProt P02771 19-609, looked up, DM3 maytansinoid toxin conjugate, DPR 4.8) Alpha-fetoprotein: RTLHRNEYGIASILDSYQCTAEISLADLATIFFAQFVQEATYKEVSKMVKDALTAIEKPTGDEQSSGCLENQLPAFLEELCHEKEILEKYGHSDCCSQSEEGRHNCFLAHKKPTPASIPLFQVPEPVTSCEAYEEDRETFMNKFIYEIARRHPFLYAPTILLWAARYDKIIPSCCKAENAVECFQTKAATVTKELRESSLLNQHACAVMKNFGTRTFQAITVTKLSQKFTKVNFTEIQKLVLDVAHVHEHCCRGDVLDCLQDGEKIMSYICSQQDTLSNKITECCKLTTLERGQCIIHAENDEKPEGLSPNLNRFLGDRDFNQFSSGEKNIFLASFVHEYSRRHPQLAVSVILRVAKGYQELLEKCFQTENPLECQDKGEEELQKYIQESQALAKRSCGLFQKLGEYYLQNAFLVAYTKKAPQLTSSELMAITRKMAATAATCCQLSEDKLLACGEGAADIIIGHLCIRHEMTPVNPGVGQCCTSSYANRRPCFSSLVVDETYVPPAFSDDKFIFHKDLCQAQGVALQTMKQEFLINLVKQKPQITEEQLEAVIADFSGLLEKCCQGQEQEVCFAEEGQKLISKTRAALGV",potency lower than ABZ981 and DM4 conjugates,"MCF-7; MCF-7, Series 1",approximately 3 fold
same,IC50,MCF-7; Series 1 bioconjugates,4.62 nM
same,IC50,U937,1.6 nM
